T1: TGFβRI/TGFβRII receptor complex (mouse (endogenous in MFB-F11)) (UniProt Q64729)
T1 sequence 1: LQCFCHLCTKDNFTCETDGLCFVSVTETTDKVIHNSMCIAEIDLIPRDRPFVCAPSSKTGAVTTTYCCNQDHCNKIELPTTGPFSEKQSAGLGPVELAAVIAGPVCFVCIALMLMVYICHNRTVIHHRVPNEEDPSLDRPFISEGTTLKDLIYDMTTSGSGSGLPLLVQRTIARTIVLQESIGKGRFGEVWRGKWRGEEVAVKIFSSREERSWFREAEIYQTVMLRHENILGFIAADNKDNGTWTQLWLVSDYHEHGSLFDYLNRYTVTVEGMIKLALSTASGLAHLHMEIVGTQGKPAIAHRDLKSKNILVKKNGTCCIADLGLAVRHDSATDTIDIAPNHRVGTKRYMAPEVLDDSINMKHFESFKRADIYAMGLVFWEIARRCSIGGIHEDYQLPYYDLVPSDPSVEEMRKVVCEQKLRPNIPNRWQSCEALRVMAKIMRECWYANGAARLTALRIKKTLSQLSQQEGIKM
T1 sequence 2: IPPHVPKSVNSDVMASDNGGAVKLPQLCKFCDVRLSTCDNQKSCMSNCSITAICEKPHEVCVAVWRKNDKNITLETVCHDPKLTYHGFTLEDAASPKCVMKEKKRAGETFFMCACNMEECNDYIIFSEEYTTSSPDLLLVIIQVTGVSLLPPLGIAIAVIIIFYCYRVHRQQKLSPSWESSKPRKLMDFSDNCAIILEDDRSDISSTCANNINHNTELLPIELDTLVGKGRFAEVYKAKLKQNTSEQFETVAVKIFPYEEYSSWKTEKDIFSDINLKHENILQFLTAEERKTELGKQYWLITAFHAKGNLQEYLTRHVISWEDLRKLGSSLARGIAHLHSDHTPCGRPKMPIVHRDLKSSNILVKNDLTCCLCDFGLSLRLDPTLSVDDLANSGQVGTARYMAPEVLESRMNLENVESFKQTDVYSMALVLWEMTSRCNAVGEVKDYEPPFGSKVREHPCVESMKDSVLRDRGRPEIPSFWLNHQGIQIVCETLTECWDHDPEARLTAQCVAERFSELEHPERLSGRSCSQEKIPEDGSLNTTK


Assays:
[1] = biological target: T1, TGFβRI/TGFβRII receptor complex (mouse (endogenous in MFB-F11))
[2] = biological target: T1, TGFβRI/TGFβRII receptor complex (mouse (endogenous in MFB-F11)); remark: listed apart in the source
[3] = biological target: T1, TGFβRI/TGFβRII receptor complex (mouse (endogenous in MFB-F11)); remark: listed apart in the source
[4] = biological target: T1, TGFβRI/TGFβRII receptor complex (mouse (endogenous in MFB-F11)); remark: listed apart in the source

Smad3 mRNA, ddCt (qRT-PCR), IP at 50 μM against the reference inhibitor SB-525334 at 50 nM [1] | Jun N-terminal kinase (JNK1) mRNA, ddCt (qRT-PCR), IP at 50 μM against the reference inhibitor SB-525334 at 50 nM [2] | Smad2 mRNA, ddCt (qRT-PCR), IP at 50 μM against the reference inhibitor SB-525334 at 50 nM [3] | Smad4 mRNA, ddCt (qRT-PCR), IP at 50 μM against the reference inhibitor SB-525334 at 50 nM [4] | Binder
0.2 | -0.1 | -2.4 | 0.9 | AYCFRNVQD [peptide inhibitor 1.5 …]
-11.9 | -15.3 | -12.2 | -11.3 | LDAAYCFRN [peptide inhibitor 1.2 …]
-9.5 | -13.4 | -10.5 | -9.3 | DAAYCFRNV [peptide inhibitor 1.3 …]

Source: PMC10758017
